Measured values from patent publication US20230365648A1 (published 2023).
Residue numbers refer to the chain shown, from its start. Like-named read-outs stand apart in the source and are kept apart here. One block for each binder: values may come before it.

Assays:
rhCD47-his (human CD47) [1] = target: T1, rhCD47-his (human CD47) (human, UniProt Q08722 19-139); test: BLI (Octet)
Cyno monkey CD47 [2] = target: T2, Cyno monkey CD47 (Cyno monkey, UniProt A0A2K5X523 19-139); test: BLI (Octet)
T2 chain: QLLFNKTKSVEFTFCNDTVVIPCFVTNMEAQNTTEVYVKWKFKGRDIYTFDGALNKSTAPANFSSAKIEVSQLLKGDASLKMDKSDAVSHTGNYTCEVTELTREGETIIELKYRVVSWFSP

rhCD47-his (human CD47) [3] = target: T1, rhCD47-his (human CD47); test: BLI (Octet); remark: listed apart in the source
rat CD47 = target: T3, rat CD47 (rat, UniProt P97829 19-140); test: BLI (Octet)
T3 chain: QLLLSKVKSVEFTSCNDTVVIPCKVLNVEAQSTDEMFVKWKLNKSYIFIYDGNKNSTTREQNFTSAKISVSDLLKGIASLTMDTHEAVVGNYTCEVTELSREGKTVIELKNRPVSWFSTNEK

Cyno monkey CD47 [4] = target: T2, Cyno monkey CD47; test: BLI (Octet)
mouse CD47 = target: T4, mouse CD47 (mouse, UniProt Q61735 19-140); test: BLI (Octet)
T4 chain: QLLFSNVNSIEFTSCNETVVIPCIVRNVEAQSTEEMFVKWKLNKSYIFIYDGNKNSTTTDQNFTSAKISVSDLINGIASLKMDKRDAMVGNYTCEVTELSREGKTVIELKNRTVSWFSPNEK

[5] = target: CD47 on human CD45 negative red blood cells (human, UniProt Q08722 19-323); test: FACS cell binding

- Kd (rhCD47-his (human CD47) [1]): 0.03 nM
- Kd (Cyno monkey CD47 [2]): 0.0974 nM
- Kd (rhCD47-his (human CD47) [3]): 0.03 nM
- Kd (rat CD47): 1.03 nM
- Kd (Cyno monkey CD47 [4]): 0.0974 nM
- Kd (mouse CD47): 5.12 nM
- EC50 [5]: 12 nM
B1: Construct 50 (SIRPα fusion polypeptide SEQ ID NO: 10 construct without the YTE mutation, i.e. with the wild type IgG4 Fc domain) (Fc fusion)
chain: EEELQIIQPDKSVLVAAGETATLRCTITSLFPVGPIQWFRGAGPGRVLIYNQRQGPFPRVTTVSDTTKRNNMDFSIRIGNITPADAGTYYCIKFRKGSPDDVEFKSGAGTELSVRAKPSAAAPPCPPCPAPEFLGGPSVFLFPPKPKDTLMISRTPEVTCVVVDVSQEDPEVQFNWYVDGVEVHNAKTKPREEQFNSTYRVVSVLTVLHQDWLNGKEYKCKVSNKGLPSSIEKTISKAKGQPREPQVYTLPPSQEEMTKNQVSLTCLVKGFYPSDIAVEWESNGQPENNYKTTPPVLDSDGSFFLYSRLTVDKSRWQEGNVFSCSVMHEALHNHYTQKSLSLSLGK

- Kd (rhCD47-his (human CD47) [1]): 0.0117 nM
- Kd (Cyno monkey CD47 [2]): 0.0211 nM
- Kd (rhCD47-his (human CD47) [3]): 0.0117 nM
- Kd (rat CD47): 0.681 nM
- Kd (Cyno monkey CD47 [4]): 0.0211 nM
- Kd (mouse CD47): 1.61 nM
- EC50 [5]: 5.8 nM
B2: Construct 67 (SIRPα fusion polypeptide of SEQ ID NO: 10, SIRPα domain of SEQ ID NO: 2 and IgG4 Fc domain with a YTE mutation) (Fc fusion)
chain: B1 chain with M151Y, S153T, T155E
